Usually Km stands for the concentration of substrate that gives half-maximal velocity. Broadly, the kcat is the maximal rate divided by the concentration of active sites.

Consider one protein from PMC12177922, “In Vivo Ribosome-Amplified MetaBOlism, RAMBO, Effect Observed by Real Time Pulse Chase, RTPC, NMR Spectroscopy” (Biochemistry, 2025).

Substrate in this data set: Nc1ncnc2c1ncn2[C@@H]1O[C@H](COP(=O)(O)OP(=O)(O)OP(=O)(O)O)[C@@H](O)[C@H]1O
Description: direct 1H NMR kinetic assay (FBP peak). It counts as biochemical, Geobacillus stearothermophilus. The conditions noted are these: 1 mM F6P, 1 nM enzyme, pH 7.5, 10 mM sodium phosphate, 50 mM KCl, 10 mM MgCl2, 10 °C, no ribosomes, fit with substrate inhibition.

B1: PFK-A (Geobacillus stearothermophilus) (protein)
chain: MKRIGVLTSGGDSPGMNAAIRSVVRKAIYHGVEVYGVYHGYAGLIAGNIKKLEVGDVGDIIHRGGTILYTARCPEFKTEEGQKKGIEQLKKHGIEGLVVIGGDGSYQGAKKLTEHGFPCVGVPGTIDNDIPGTDFTIGFDTALNTVIDAIDKIRDTATSHERTYVIEVMGRHAGDIALWSGLAGGAETILIPEADYDMNDVIARLKRGHERGKKHSIIIVAEGVGSGVDFGRQIQEATGFETRVTVLGHVQRGGSPTAFDRVLASRLGARAVELLLEGKGGRCVGIQNNQLVDHDIAEALANKHTIDQRMYALSKELSI
notes: commercial lyophilized enzyme (Sigma-Aldrich)
As to B1, the Km amounted to 84 ± 9.8 µM and the kcat was determined as 36 ± 1.5 s⁻¹.
